The target of assay [1] is DA transporter (DAT) (Rattus norvegicus, UniProt P23977). Briefly: [3H]DA uptake into rat striatal synaptosomes. It is filed as biochemical.
Assay [2] addresses human DAT (Homo sapiens, UniProt Q01959). Briefly: Dissociation of [3H]WIN 35,428 binding from HEK/hDAT cells. The settings on record: for Dissociation rate K−1 of [3H]WIN 35,428 binding (single component model): experiment B.

Chain of DA transporter (DAT) (P23977 whole entry): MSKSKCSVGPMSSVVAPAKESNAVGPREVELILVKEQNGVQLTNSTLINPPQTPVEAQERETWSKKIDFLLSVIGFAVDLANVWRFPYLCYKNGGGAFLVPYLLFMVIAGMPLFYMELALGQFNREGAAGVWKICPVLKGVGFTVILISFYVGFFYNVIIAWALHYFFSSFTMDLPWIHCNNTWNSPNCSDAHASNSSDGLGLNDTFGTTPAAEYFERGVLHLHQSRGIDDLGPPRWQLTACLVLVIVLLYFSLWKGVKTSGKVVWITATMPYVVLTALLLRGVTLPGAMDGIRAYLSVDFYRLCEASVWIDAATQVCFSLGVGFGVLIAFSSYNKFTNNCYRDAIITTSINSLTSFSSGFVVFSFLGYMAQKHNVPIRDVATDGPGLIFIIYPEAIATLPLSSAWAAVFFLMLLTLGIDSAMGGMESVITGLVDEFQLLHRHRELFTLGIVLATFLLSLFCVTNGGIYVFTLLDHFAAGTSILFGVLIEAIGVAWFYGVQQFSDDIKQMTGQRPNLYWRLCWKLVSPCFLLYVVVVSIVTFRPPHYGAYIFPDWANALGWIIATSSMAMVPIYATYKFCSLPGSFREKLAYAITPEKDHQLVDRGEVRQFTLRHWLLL
Chain of human DAT (Q01959 whole entry): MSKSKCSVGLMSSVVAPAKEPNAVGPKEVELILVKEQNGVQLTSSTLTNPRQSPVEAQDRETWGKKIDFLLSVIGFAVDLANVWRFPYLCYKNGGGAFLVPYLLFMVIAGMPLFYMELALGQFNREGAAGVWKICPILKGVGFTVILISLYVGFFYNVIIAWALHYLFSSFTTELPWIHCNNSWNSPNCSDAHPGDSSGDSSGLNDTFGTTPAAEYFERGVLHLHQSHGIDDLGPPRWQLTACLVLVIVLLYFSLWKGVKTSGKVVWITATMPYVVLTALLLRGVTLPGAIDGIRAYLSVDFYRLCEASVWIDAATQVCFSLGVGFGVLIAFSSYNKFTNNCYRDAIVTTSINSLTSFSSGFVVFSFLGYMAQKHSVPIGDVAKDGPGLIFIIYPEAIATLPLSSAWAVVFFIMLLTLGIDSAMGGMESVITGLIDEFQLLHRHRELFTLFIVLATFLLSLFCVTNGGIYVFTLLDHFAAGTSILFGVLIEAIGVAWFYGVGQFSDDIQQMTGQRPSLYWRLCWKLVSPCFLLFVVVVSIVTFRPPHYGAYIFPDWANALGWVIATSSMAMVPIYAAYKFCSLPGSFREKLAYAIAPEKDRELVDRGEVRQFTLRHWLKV

`COC(=O)[C@H]1[C@@H](OC(=O)c2ccccc2)C[C@@H]2CC[C@H]1N2C` [Cocaine]: in assay [1] (control (cocaine alone)), the “Specific Uptake (percentage of control)” value worked out at 100%.
For `CN[C@@H]1C[C@@H](c2ccc(Cl)c(Cl)c2)c2ccccc21.Cl` [Indatraline, indatraline hydrochloride], the “Specific Uptake (percentage of control)” value in assay [1] (indatraline 10 nM, control = cocaine alone) was 33%.

B1: Tat: Recombinant HIV-1 Tat1-86 protein, LA1/Bru strain of HIV-1 clade B, Genbank accession no. K02013 (protein)
chain: MEPVDPRLEPWKHPGSQPKTACTTCYCKKCCFHCQVCFTTKALGISYGRKKRRQRRRPPQGSQTHQVSLSKQPTSQPRGDPTGPKE
Consider B1, for which, in assay [1] (Tat 5 μM, control = cocaine alone), the “Specific Uptake (percentage of control)” value worked out at 45%. Besides, the “Dissociation rate of [3H]WIN 35,428 relative to that observed with cocaine alone” value in assay [2] (Tat added after cocaine) worked out at 25%. The “Dissociation rate K−1 of [3H]WIN 35,428 binding (single component model)” value is 0.08 ± 0.005 min⁻¹ in assay [2] (condition-2: cocaine 10 μM at time 0, Tat 5 μM added 5 min later) and 0.03 ± 0.009 min⁻¹ in assay [2] (condition-3: Tat 5 μM alone).

(Values after PMC3676522 (Synapse (New York, N.Y.), 2011).)
